In publication PMC10150588 (Journal of chemical information and modeling, 2023):
Several values for one entry are separate records, joined by “and”; a condition that tells them apart may be missing. Identical values can stand only once. Like-named read-outs stand apart in the source and are kept apart here. No end group written: not given here.

Assays:
[1] = target: NSD3 short peptide (Homo sapiens) (UniProt Q9BZ95); settings: cited from earlier work
[2] = target: BRG1 peptide (Homo sapiens) (UniProt P51532); settings: cited from earlier work
[3] = target: CHD4 peptide (Homo sapiens) (UniProt Q14839); settings: cited from earlier work
Chain of CHD4 peptide (Homo sapiens) (Q14839 whole entry): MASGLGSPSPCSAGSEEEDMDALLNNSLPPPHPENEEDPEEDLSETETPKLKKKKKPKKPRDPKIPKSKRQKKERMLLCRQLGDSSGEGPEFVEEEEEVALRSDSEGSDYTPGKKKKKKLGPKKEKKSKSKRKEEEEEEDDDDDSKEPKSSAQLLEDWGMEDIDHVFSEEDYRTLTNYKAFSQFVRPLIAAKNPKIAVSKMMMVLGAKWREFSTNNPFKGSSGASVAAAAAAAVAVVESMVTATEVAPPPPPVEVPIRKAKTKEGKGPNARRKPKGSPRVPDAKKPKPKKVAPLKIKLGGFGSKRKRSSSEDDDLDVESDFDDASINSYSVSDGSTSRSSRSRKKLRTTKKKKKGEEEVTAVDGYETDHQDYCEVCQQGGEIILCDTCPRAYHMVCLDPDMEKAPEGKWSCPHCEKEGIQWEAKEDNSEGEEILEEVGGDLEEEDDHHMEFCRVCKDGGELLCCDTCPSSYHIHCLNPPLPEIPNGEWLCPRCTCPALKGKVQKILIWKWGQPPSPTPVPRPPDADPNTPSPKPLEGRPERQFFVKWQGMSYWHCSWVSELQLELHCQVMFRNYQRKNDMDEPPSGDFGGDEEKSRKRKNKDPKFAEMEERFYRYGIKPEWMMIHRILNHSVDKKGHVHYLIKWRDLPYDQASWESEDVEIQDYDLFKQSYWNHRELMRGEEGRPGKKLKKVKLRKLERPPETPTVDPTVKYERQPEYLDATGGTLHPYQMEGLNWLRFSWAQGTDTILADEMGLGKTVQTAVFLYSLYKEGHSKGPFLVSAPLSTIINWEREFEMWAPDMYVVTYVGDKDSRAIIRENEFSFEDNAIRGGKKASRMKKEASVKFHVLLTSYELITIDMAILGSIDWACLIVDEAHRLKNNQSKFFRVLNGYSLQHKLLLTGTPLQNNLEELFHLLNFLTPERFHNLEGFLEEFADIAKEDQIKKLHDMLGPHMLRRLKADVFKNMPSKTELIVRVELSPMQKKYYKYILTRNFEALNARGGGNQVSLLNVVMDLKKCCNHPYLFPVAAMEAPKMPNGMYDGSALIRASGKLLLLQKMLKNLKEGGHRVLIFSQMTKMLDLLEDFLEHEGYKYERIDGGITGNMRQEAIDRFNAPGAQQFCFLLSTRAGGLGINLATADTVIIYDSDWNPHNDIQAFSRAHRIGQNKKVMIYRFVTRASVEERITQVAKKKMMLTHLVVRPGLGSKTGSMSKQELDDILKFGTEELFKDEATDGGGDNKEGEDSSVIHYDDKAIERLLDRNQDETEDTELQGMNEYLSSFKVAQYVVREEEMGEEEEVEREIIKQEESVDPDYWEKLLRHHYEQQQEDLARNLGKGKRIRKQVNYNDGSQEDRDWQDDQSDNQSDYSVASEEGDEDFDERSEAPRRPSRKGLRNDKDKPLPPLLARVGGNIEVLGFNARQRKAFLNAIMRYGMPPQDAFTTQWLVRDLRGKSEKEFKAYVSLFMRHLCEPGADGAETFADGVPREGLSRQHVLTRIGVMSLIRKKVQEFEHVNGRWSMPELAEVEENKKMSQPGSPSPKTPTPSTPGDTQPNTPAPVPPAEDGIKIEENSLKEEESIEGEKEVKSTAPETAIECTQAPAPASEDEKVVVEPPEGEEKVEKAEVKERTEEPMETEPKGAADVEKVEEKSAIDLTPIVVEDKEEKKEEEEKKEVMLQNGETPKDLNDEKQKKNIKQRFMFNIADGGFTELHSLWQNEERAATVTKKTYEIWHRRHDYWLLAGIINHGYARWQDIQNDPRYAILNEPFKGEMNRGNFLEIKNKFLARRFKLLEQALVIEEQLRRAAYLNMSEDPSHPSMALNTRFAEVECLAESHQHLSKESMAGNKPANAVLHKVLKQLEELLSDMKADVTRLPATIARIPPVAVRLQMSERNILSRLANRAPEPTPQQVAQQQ

[4] = target: T1, BRD3 ET (Homo sapiens, UniProt Q15059); settings: cited from earlier work
T1 sequence (Q15059 554-640): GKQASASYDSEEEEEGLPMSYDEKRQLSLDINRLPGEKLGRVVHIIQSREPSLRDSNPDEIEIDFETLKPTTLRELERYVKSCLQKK

[5] = target: T1, BRD3 ET; settings: cited from earlier work; remark: listed apart in the source
[6] = tested on: BRD4-ET; settings: cited from earlier work
[7] = tested on: BRD3-ET; settings: cited from earlier work
[8] = target: BRD4 ET (Homo sapiens) (UniProt O60885); settings: cited from earlier work
[9] = target: JMJD6 peptide (Homo sapiens) (UniProt Q6NYC1); settings: cited from earlier work
[10] = target: LANA peptide (Human herpesvirus 8) (UniProt Q9QR71); settings: cited from earlier work
Chain of LANA peptide (Human herpesvirus 8) (Q9QR71 1-23): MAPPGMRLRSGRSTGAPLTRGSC

[11] = target: T1, BRD3 ET; assay: Isothermal titration calorimetry, peptide binding to BRD3 ET; design: species or system murine; settings: ITC, 20 mM Tris, 150 mM NaCl, 1 mM TCEP
[12] = target: BRD4 ET (Homo sapiens) (UniProt O60885); settings: cited from earlier work; remark: listed apart in the source

Chain of BRD3 ET (from UniProt Q15059) (Q15059 562-644): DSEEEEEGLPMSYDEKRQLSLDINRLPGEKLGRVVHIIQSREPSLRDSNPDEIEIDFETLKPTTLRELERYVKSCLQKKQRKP
Chain of NSD3 short peptide (Homo sapiens) (Q9BZ95 whole entry): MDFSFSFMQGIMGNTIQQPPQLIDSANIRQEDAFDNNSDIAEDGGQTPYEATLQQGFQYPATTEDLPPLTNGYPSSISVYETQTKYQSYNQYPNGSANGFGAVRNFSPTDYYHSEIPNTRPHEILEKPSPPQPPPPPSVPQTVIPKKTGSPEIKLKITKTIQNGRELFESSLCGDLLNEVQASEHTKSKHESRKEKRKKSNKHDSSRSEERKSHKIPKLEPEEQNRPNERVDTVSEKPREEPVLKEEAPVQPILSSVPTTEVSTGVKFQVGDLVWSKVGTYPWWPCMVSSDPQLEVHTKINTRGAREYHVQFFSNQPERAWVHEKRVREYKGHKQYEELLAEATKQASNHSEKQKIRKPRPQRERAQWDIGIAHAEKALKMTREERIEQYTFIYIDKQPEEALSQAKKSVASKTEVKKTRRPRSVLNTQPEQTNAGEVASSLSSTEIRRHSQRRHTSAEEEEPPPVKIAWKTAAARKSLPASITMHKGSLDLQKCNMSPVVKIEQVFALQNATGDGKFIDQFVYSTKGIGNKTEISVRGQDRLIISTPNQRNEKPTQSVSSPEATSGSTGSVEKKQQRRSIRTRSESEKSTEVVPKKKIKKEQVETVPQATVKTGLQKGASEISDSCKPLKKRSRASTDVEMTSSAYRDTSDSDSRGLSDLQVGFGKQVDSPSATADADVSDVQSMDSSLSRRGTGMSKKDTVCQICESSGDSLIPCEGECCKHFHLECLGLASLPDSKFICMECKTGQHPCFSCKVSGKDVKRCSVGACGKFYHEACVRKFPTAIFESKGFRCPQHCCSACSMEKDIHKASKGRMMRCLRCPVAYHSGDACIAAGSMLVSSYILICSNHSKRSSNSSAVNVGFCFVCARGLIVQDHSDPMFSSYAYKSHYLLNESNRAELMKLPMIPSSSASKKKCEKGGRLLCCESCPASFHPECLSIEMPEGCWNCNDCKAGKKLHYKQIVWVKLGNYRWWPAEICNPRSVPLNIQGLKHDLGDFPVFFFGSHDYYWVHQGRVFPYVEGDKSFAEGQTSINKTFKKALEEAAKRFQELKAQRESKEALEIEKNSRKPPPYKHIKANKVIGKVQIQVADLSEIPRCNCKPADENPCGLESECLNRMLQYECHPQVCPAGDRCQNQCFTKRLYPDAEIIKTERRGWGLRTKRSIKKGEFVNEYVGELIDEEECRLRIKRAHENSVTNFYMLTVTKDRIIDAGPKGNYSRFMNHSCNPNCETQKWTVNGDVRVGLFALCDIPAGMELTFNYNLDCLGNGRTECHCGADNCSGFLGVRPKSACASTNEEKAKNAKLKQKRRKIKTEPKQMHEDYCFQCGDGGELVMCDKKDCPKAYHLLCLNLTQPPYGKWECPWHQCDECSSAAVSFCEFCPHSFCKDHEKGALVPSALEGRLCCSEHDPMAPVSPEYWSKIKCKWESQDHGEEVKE

Substance: BRD3 ET (from UniProt Q15059)
- Kd [1]: 950 µM
- Kd [2]: 7 µM
- Kd [3]: 95 µM

Substance: BRG1 1591-1602 (from UniProt P51532)
- Kd [4]: 7 µM

Substance: CHD4 290-301 (from UniProt Q14839)
- Kd [5]: 95 µM

Substance: KWTLERLKRKYRN [JMJD6]
- relative binding strength ([6]; BRD4-ET binding of JMJD6 compared with NSD3 and LANA binding BRD3-ET): reported to bind BRD4-ET more strongly than NSD3 and LANA bind BRD3-ET
- Kd ([6]; BRD4-ET:JMJD6, 20 °C): ~160 µM
- relative binding to BRD3-ET vs BRD4-ET ([7]; BRD3-ET compared with BRD4-ET): weak or no binding

Substance: JMJD6 84-96 (from UniProt Q6NYC1)
- Kd [8]: 160 µM

Substance: NLQSSIVKFKKPLPLTQPG [LANA]
- Kd ([6]; BRD4-ET:LANA): ~635 µM

Substance: BRD4 ET (from UniProt O60885)
- Kd [9]: 160 µM
- Kd [10]: 635 µM

Substance: SRLTWRVQRSQNPLKIRLTREAP [TP]
- Kd ([11]; pH 7.5, 10 °C): 0.013 ± 0.01 µM
- Kd ([11]; pH 7.5, 25 °C): 0.09 ± 0.01 µM

Substance: LANA 1098-1116 (from UniProt Q9QR71)
- Kd [12]: 635 µM

Substance: KVAPLKIKLGGF [CHD4]
- Kd ([7]; BRD3-ET): ~95 µM and < 100 µM
